{
  "source": "patent US20240166742A1",
  "about": "“MOLECULES THAT BIND TO AND STABILIZE TRIGGERING RECEPTOR EXPRESSED ON MYELOID CELLS 2 (TREM2)” (Novartis AG, priority 2015, published 2024)",
  "key": {"[1]": {"molecular_target": "T1, cell surface human TREM2 on CHO-hTREM2 cells (Homo sapiens, UniProt Q9NZC2)", "T1 construct": "expressed in transfected cells; host or cells: CHO cells, stably double transfected (G418 / hygromycin)", "T1 sequence (O43914 22-113 partner, one chain of several)": "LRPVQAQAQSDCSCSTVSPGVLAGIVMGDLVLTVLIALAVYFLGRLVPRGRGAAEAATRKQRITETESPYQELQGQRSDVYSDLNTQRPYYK", "test": "TREM2 surface stabilization by SOMAmers on CHO-hTREM2 cells (flow cytometry)", "assay_type": "cell-based", "settings": "37° C. for 3 hours", "description": "A HEK cell line stably expressing a chimeric receptor consisting of TREM2-extracellular domain and DAP12 was first described by Kleinberger et al. 2014. In analogy a TREM-2/DAP12 chimeric receptor expressing cell line was produced according to standard cell culture procedures. CHO cells were sequentially transfected with eukaryotic expression vectors for human DAP12 (hDAP12) and human TREM2 (hTREM2). Resulting CHO-hTREM2/hDAP12 double transfected cells (CHO-hTREM2) were grown in DMEM/F12 medium supplemented with 10% fetal bovine serum 0.2 mg/ml G418 and 0.2 mg/mL hygromycin. Confluent adherent CHO cells were harvested after treatment with cell dissociation buffer (Gibco 13151-014) and cell surface TREM2 was quantified by flow cytometry as described below. […]\nTREM2 SOMAmers were tested for their ability to stabilize or increase cell surface human TREM2, e.g., by modulating homeostatic dynamics of shedding or internalization. […] Cells were then assessed for surface human TREM2 by flow cytometry."}, "[2]": {"molecular_target": "T2, cell surface human TREM2 on primary human M2a macrophages (Homo sapiens, UniProt Q9NZC2)", "T2 construct": "Human M2a macrophages were generated from monocytes isolated from buffy coats; endogenous in cells; host or cells: primary human M2a macrophages differentiated from buffy-coat monocytes (MCSF + IL4)", "T2 sequence (Q9NZC2 19-230)": "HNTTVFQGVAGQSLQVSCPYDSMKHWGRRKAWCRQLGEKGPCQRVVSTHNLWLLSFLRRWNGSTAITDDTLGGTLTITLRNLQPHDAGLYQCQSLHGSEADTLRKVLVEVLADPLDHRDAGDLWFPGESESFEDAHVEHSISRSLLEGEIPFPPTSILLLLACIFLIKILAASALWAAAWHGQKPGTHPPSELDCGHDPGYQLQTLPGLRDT", "test": "TREM2 surface stabilization by SOMAmers on primary human M2a macrophages (flow cytometry)", "assay_type": "cell-based", "settings": "37° C. for 3 hours", "description": "Human M2a macrophages were generated from monocytes isolated from buffy coats by negative selection. M2a macrophages were generated by 5-6 days differentiation of monocytes in RPMI (supplemented 10% fetal bovine serum, and typical concentrations of Glutamax, Sodium pyruvate, Non Essential Amino Acids, HEPES) with MCSF 40 ng/mL (R&D) and 50 ng/mL IL4 (R&D). M2a macrophages were harvested with cell dissociation buffer (Gibco 13151-014) and cell surface TREM2 was assessed by flow cytometry as described below.\nCells were stained for TREM2 surface expression in FACS buffer (PBS, containing 10% heat-inactivated human serum AB male (Invitromex), 0.05% w/v sodium azide, 5 mM EDTA, 1 mg/mL Privigen (Mg) in PBS using goat anti-human TREM2 (R&D) or an appropriate isotype control. Cells were counterstained with F(ab)′2 fragments of an rabbit anti-goat IgG polyclonal antibody conjugated with Alexa488 (LifeTechnologies). All stainings were performed on ice for 30 min Cells were assessed for TREM2 surface expression on a BD LSR Fortessa or a FacsCalibur flow cytometer. Median fluorescence intensities corresponding to the degree of anti-TREM2 bound to cells were evaluated using FlowJo (Millipore INC)\nTREM2 SOMAmers were tested for their ability to stabilize or increase cell surface human TREM2, e.g., by modulating homeostatic dynamics of shedding or internalization. […]"}, "[3]": {"molecular_target": "T1, cell surface human TREM2 on CHO-hTREM2 cells", "test": "Binding of biotinylated SOMAmers to cellular TREM2 by flow cytometry", "assay_type": "cell-based", "settings": "CHO-hTREM2 vs CHO control cells; on ice; streptavidin-APC detection", "description": "A HEK cell line stably expressing a chimeric receptor consisting of TREM2-extracellular domain and DAP12 was first described by Kleinberger et al. 2014. In analogy a TREM-2/DAP12 chimeric receptor expressing cell line was produced according to standard cell culture procedures. CHO cells were sequentially transfected with eukaryotic expression vectors for human DAP12 (hDAP12) and human TREM2 (hTREM2). Resulting CHO-hTREM2/hDAP12 double transfected cells (CHO-hTREM2) were grown in DMEM/F12 medium supplemented with 10% fetal bovine serum 0.2 mg/ml G418 and 0.2 mg/mL hygromycin. Confluent adherent CHO cells were harvested after treatment with cell dissociation buffer (Gibco 13151-014) and cell surface TREM2 was quantified by flow cytometry as described below.\nBinding of SOMAmers to cellular TREM2 was assessed by incubation of biotinylated SOMAmers at various concentrations with CHO-hTREM2 cells. In this case binding of SOMAmers to cell surface TREM2 was done on ice for 20-30 min to prevent modulation of cell surface TREM2. […] Cells were thereafter washed with FACS buffer and bound biotinylated SOMAmers were detected via streptavidin-APC conjugate (Biolegend, Inc). Median fluorescence intensities corresponding to the degree of TREM2 SOMAmer bound to cells were acquired on a FacsCalibur flow cytometer and evaluated using FlowJo (Millipore INC)."}, "[4]": {"molecular_target": "T3, human TREM2 stalk region Peptide 76", "T3 chain": "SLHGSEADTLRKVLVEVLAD"}, "[5]": {"molecular_target": "T4, human TREM2 stalk region Peptide 77", "T4 chain": "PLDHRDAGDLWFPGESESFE"}, "[6]": {"molecular_target": "T5, human TREM2 stalk region Peptide 78", "T5 chain": "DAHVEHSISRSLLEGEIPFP"}, "[7]": {"molecular_target": "T6, human TREM2 stalk region Peptide 79", "T6 chain": "VEVLADPLDHRD"}, "[8]": {"molecular_target": "T7, human TREM2 stalk region Peptide 80", "T7 chain": "ESESFEDAHVEH"}},
  "note": "[NapdU] = code of the source, not defined here",
  "data": [
    {"molecule": "KX86-94WC: TREM2 SOMAmer, core sequence SEQ ID NO: 13, P = NapdU modified dUTP residue (DNA CCCTCUGUCAACCUCCACACAGGCCUUUGAUGCAAGUAUACAGUGGAAGA; DNA, [NapdU] at 6, 8, 14, 26, 27, 28, 31, 37, 39, 44, backbone and methylation of C not given here; further chemistry not fully specified)", "values": [
      {"measurement": "cell surface human TREM2 level (stabilization)", "setting": "[1]", "result": "stabilized cell surface human TREM2"},
      {"measurement": "cell surface human TREM2 level (stabilization)", "setting": "[2]", "result": "stabilized cell surface human TREM2"}
    ]},
    {"molecule": "UX95-90BC: TREM2 SOMAmer (slow off-rate modified aptamer), core sequence SEQ ID NO: 12, P = NapdU modified dUTP residue (DNA CCCTCGAUCCGGUGGCGGAUCCUAAGUAUUGGCCCGGUCCGCCAAGAAGA; DNA, [NapdU] at 8, 13, 20, 23, 27, 29, 30, 38, backbone and methylation of C not given here; further chemistry not fully specified)", "values": [
      {"measurement": "cell surface human TREM2 level (stabilization)", "setting": "[1]", "result": "stabilized and increased cell surface human TREM-2"}
    ]},
    {"molecule": "EX83-95HC: control SOMAmer, core sequence SEQ ID NO: 14 (DNA CCCTCCCUAUCGCAAUGACACAUUGGGGUCUCGAGGUGCGCGAUCGAAGA; DNA, [NapdU] at 8, 10, 16, 23, 24, 29, 31, 37, 44, backbone and methylation of C not given here; further chemistry not fully specified)", "values": [
      {"measurement": "binding to cell surface human TREM2", "setting": "[3]", "result": "did not bind to cell surface human TREM2"}
    ]},
    {"molecule": "Human TACE (ADAM-17) recombinant catalytic domain (protein) RADPDPMKNTCKLLVVADHRFYRYMGRGEESTTTNYLIELIDRVDDIYRNTSWDNAGFKGYGIQIEQIRILKSPQEVKPGEKHYNMAKSYPNEEKDAWDVKMLLEQFSFDIAEEASKVCLAHLFTYQDFDMGTLGLAYVGSPRANSHGGVCPKAYYSPVGKKNIYLNSGLTSTKNYGKTILTKEADLVTTHELGHNFGAEHDPDGLAECAPNEDQGGKYVMYPIAVSGDHENNKMFSNCSKQSIYKTIESKAQECFQERSNKV", "values": [
      {"measurement": "TACE cleavage of the Mca-labelled peptide (HPLC/HRMS)", "setting": "[4]", "result": "no TACE cleavages were observed for Peptides 76, 79, 77 and 80"},
      {"measurement": "TACE cleavage of the Mca-labelled peptide (HPLC/HRMS)", "setting": "[5]", "result": "no TACE cleavages were observed for Peptides 76, 79, 77 and 80"},
      {"measurement": "TACE cleavage of the Mca-labelled peptide (HPLC/HRMS)", "setting": "[6]", "result": "For Peptide 78, two main cleavage products by TACE were found: DAHVEH (termed X01, SEQ ID NO: 25) and SISRSLLEGEIPFP (termed X02, SEQ ID NO: 26)"},
      {"measurement": "TACE cleavage of the Mca-labelled peptide (HPLC/HRMS)", "setting": "[7]", "result": "no TACE cleavages were observed for Peptides 76, 79, 77 and 80"},
      {"measurement": "TACE cleavage of the Mca-labelled peptide (HPLC/HRMS)", "setting": "[8]", "result": "no TACE cleavages were observed for Peptides 76, 79, 77 and 80"}
    ]}
  ]
}
